Experimental data published in the supplement of paper PMC12636428.

Test system: Saccharomyces cerevisiae
Assay: transcriptional activation domain activity (GFP:mCherry ratio, weighted mean of sorted bins, harmonized to initial dataset scale) (arbitrary fluorescence ratio units); higher = stronger transcriptional activation
Details: beta-estradiol 1 µM; induction time 4 h
Procedure, shortened: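 The listed activation activity is a read-weighted mean of bin median fluorescence, averaged across barcodes and linearly mapped onto the initial dataset scale. Barcoded tiles, fused to an estradiol-inducible synthetic transcription factor, were integrated at URA3 in yeast diploids bearing a GFP reporter. Cells were held 4 hours at 30 °C in SC with 1 uM beta-estradiol, sorted into 8 GFP:mCherry bins, and sequenced, and tiles with fewer than 50 reads were excluded.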

Sequence	transcriptional activation domain activity
VLLITLILSSRINITPVVHVNPSFSTVHLIIIPHFLCNIITLLIYFIVCWGST	56800
VLLLKTLLSPVVVPDLDDHSLVLKQFKTFHWQRKNLTSVINILAQALYSLFAA	27800
VLLLLYLAFRAQTIEISIPKAKFCCYDTRVRILVPSRGYRSTYMCRISLLLGC	19900
VLLLVIFACAIVYLKSLVYSPSPFPTLIACYMSHSNRRYLSVMYGVVLVHQIT	75600
VLLQNLCRMVITRLGDWTLFKAFVLCCCLYRLSFFHDLFLFLYTFSFPLLCFT	57100
VLLVLPLFFSFSLYHPLRLHPFRLFFFFFFFFLCIFFYFSPFPSFSCHFLFSS	59100
VLLVVMFFGVLHKRNATHLWNLLYFQGLFWILAATMTELPSVVCLPYSPPLRC	57400
VLLYFCSGYMFAILITVAYILLQFLVPLITDAHVLFFEWTFFEFLFRIWFLLW	79500
VLLYTGLLKFFNLGVLTATLVEVCKRPWRIRMANGRVDRMKYFNLVFGIVWEC	58700
VLMDERISLKNDLSSQDVALFLSLASSVASGSLLLRPPNVWIVVWTYLHRRHG	66900
VLMLIVSNLRLMIENFKKYGVLICLSCHDYRRQDVIYGSILYLLVPCHLFVAY	41900
VLPPLLLAILFAVLPFILRGLAWYECIPRYSLISVSVYRRFFLFLLIHGFLIV	65300
VLPVRFPKDCDQVFIACAVDCAELWRPGWKANIWVISHRRMIVSTVHIRHLSR	48200
VLQILAFAMFIICTLTLQLRLRSNPPVQCVAGVVTHYRRYFIALYCTSGLFLI	56600
VLRLFNDVWAVTLTQLSILALVGVYLILPYYNVLQCCLIRQDVVLLYLPAFLV	66500
VLRMFFVSQANTFVILSLLGLCLPSRALPAAFGFSPSYAPLLIRLYLAQTLFT	25800
VLRWGDTNTLPFVHIMMVFIHKMAQYAAAMSYLEQVFPWKLTMVMLNYHLTSC	68500
VLSDKEKHRVASQHLNGESSPQLVPHSHHQPHSDTDEEDWESIGAASLRNNSL	35500
VLSKKTIDKVLRLIRKLDWNDPQVVQALHKVFSKVWKIKFSHISLLAMLIYDL	92000
VLSRVTGLEHKQMCKIILGLIIDLLLPSGGDTSRILRTVRALLDFLYLAQLPS	73900
VLSSSLCFPLPPLSPPFLPSLCFPLPPFFPFPPFPLFPPFLPFPLFPLCFPLP	48300

Sequence	transcriptional activation domain activity
VLTLTFNDGKKHEDLSKQLLFVIHDIFSCDQNSPGYVLLRLLRSFLVLDVYMS	65000
VLVVLCLRFFIFGIFGYILGFWMQHLLPYTPLSLSFMCLLFCLSFHLDISPSP	45600
VLVVVVALPVVAVMVIMVVVVVVVVVVAIIGGGGWWMWLGLWLRLLIEMDVGA	32900
VLYGRLRVKAQLLECALWNISAWLSLPDVERKSYTMLFTTLGGLYDMTCRIYL	53000
VLYPLWPLKMRQGVYYLSWGFLCLLGLFFLMAIFRVILFCITYFVVSPGLWLF	34400
VLYSSLITIFTAFYWNVASTSSVQILALLLPYTHPNIAHASTIRPFLIYALFT	66700
VMFHGKQMKNFLIDINSFTNQQQQAQDNPSFLPLDIEQSSYDLSEDAMSYPII	115000
VMHALWNRWIFFNRSLFLGNQHEGVRAFITEYWRMIRLAAGWDVLRWWLLILC	51800
VMLNQQILYFCLRILCMHAYAQFRMEDSDIWRMVEKKKHIYNRLIELVYTLCS	46300
VMLSFFICRPILRLLHVFHISSPIYLYLPFVPLHLLIYPSFLIDVGLLSMVLA	65200
VMMAIIYLMVIFTFIIGVVAGVVPFLYFLSESHFLMCRKASETAGFLCLMFAA	33700
VMPTWLWMPLLLVANFFCRFFLFHLIICSYIYPLLYVQLMWVFWFIWRGVFSF	55700
VMSYLLCVALVFPVMIVLMLLGCVWFLIVLFFMLGVLIFIMCIGPLYVILKAP	10200
VNDAARILLAGLLEIKYTIREHLKSMFGSPWIIMYWRNWSGPLNITLELLGKC	45200
VNDIYDSSRSRACNACRNSKVRCEQPRPDHPCKRCAKARRECVSSTRGHKRRR	< 6570
VNDNSTGSTDSTGSTGNKNKKNNNNSDDVLPFISESPFDMNQVTNFFSPGSTG	38600
VNFLGLMYAPLFVLSNFGAANCQHNALLFKFNMHAFFLCFDLFLLYKTWVVAQ	49900
VNGDLFEADGCTIQWLLDNSHGLIFAVAYPRILTLTYVPALLQTIKTLFLSLF	44000
VNGGGESDEDVKSKKDSKRKGKAIKGEDEEEEEEKPKANSKRGRKKVEENGAV	44700
VNHIVAYITLGIVGFCFLSYITLTLMPLIFHDCPYYTPFTSLLWYSAQIIPFF	33600
VNKSGSTYGEELSPKLDSSLVNDTTSLLLPQQPVFVSENVGSEFSSLNEFLSM	108000

Sequence	transcriptional activation domain activity
VNLHRARLRSCLDIIHLHIALGSTKRGLERVFELRRMLVSLLALHPFFRPTST	46100
VNSHGYKHISNLDELDDLLSLTYSDNNLLSASNNSDFNNSNNGIINTADTQNS	106000
VNYHLAMRYFMRYLFTQDLLPLLLAAKEQCQQAHVMCVQGAGFGLRIRTDDIG	45000
VPGEVSEAEANGETKAEDAPAAEGDAAKPKKKKKKAAKKAKSANGEATEGAPA	< 6570
VPGEVTDAEANGEVKAEDADGAEKTKPKKKKKSKAAKAKAKAEGAVEGATAAV	52900
VPGEVTEAEANGEAPKAEDGAEDGEAAKPKKKKKSKAARKAKKAAAASTEDGA	21600
VPLCIAVLLLLAPHPSILHVLLNYHYLTLHSTRYFLAHLFVIYTISFLAFSSL	47400
VPLCVAVLLLLAPHPSILHVLLNYHYLTLHAPGYFVVHLLIIYALYFLAFSSL	34000
VPLEEYIPSDIDGVGRVTDKSSLVYDWPFDESIERNFSTTATAATGESKFDIN	68100
VPLHISLPSLVIDVRVIGEPGLYFADLGCCYCLDAELQITHIHGLFLHVVFIL	56600
VPLLDSNFISLNSNPLLYIQNQNPNSNSSVKVSRSQTFEPSKELIDLVFPWLS	122000
VPLMQFILFPPFDWLVLVASPHNPILTSEFYNHLWSLIKLITLCLPLPLFGTL	61500
VPLPELEPKVVLELRAVVVQVKQLDEEPPLDLEQRVELVPTGQLEQRAAPVLR	35000
VPLVSNSGIVCYDSKIMHAFLSGLLFLQGLMILWFIMIFKLVVRVLLGENAED	43900
VPMAYHHYIALLIFGAYLSNVNALCVLSLLPLLLHSLFWSLGATNFLLLSVYN	56600
VPPELYVCAEIVRMVMGYVEGGFVKSSSNHKIRPEVLLIACLIVSIKICYSME	61300
VPPRSLCFLPSFSILTYILLIFSHLAVCPRPGPPSSSPVSIVLLLFFLRPYLL	67500
VPRHLFEKSTLKSLFYVGRHLGLTAAFYVFATHIDRIAWELCARFGYGHRIRG	20700
VPRKLTASIHHPVEGLFYGTYWVSISLILNCAHAYGVPSSGPWLVRALEVCFW	64800
VPRLKSPVYCVCLGSIILYSICLVLLVIYRVALIRESDGVCLIGFARGGSLPL	31200
VPSDSRRCRLKGVTVFTWWRNVFRQALRHQRWICLQYITSFEREWRSVLAIVR	44800

Sequence	transcriptional activation domain activity
VPSSIPRARRLQTAMVAIWSTSIVTTFALTLFLCSFPPLWPFMLMYVIWLNYI	49000
VPTVFMAIIQEFASFLYLYQMMCMWVWYYFQYYQMGLVQTIIILMAAFIRVFL	65400
VPVNPLALSPETGGPKKLPVARVLVDDEEDEEAKKLSTKPRLVIVGGGWGAVG	41900
VPWSRSGHAIDLRFVRSFVAALVFLLLLLFLLLLLLLLLLLLLLLFLLFFFVF	37200
VPYFHGLQPNNHYIHRLVVIFLQFAPSFIILTISYEGLFYFGFCLCLFCWILL	40300
VPYQKYLYYPLLCFGRFNLYVLSLEFILRDKGPKSNRWHRFYELSGQVFFWFW	71200
VQALASGDFDAGDGGRTTRPLFRKQKGASLFFVTSVCDTVCLAWTVVVHGHRQ	20600
VQASMAADYAISQFRFLHKLLLVQGHWSYARISEMILTFFFKNIFWVFPSLWY	56100
VQFVLDLIVMVGVAGYNTVAQLYFPQLPHHKCSNSAATGSFGLFLICCYLVLF	53700
VQGTTHGRILIQAGKEIWTQELLLPYVYFILTLNPTIHTWERIKKITGYVFRA	64200
VQKNYIMQYGNSLIGHQLKTLVQVNAFHVYDLVDSMQFLLTKVISELATLLWF	59200
VQLSFYRNKIFLTILNYCSGLFVLLFFFYSLFRSVILQNSSLLMLYCACWIYI	60600
VQLVLVLILVNILINILTFLILSHQGVMHTSCLYLFAYICARLCLGASLSGVW	12800
VQRLHALEKHEYDVCTNLEACLRFGLWAQRGVLSLWHLDLLNGTWMTCLSGVK	39600
VQRYLCQYQPQITLGFMIFTDMIFFFLDTYLCYVLLNTIFSIARSFYIGSSIW	56700
VQVDDRSIMVSELAVKLGRNFRAQLAILVLFRVVTSKEHIIRKGWKDIIRIWL	62200
VQVVGVLCVGWSLKVWTMHLLGDGGVAVLVKGRTRTVPMAWEEWGAVVEVMRG	40300
VRDMPQADPGADRAFDASLESSMRKLLDGLAGTSWPAKTSVWVSKLRIACNHV	61200
VREEPTAFFFVVFGLVYETLVTSVPDSDAAAHRTSIVALKALKCLVQEKYCGK	46200
VREWHVDLSFSSFGKTLLRELESLLERVRANWLEEVTVRTIALICSRLLASTI	60800
